# Test results: PMC2759517
# Biological target: HA-tagged PA of FluA (Influenza A virus)
# Assay: ELISA
# Sequence of soluble wild-type PB1_(1–25)A peptide (non-biotinylated competitor) (A4GCI3 1-25): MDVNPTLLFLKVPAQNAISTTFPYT
substance,measurement,value
soluble wild-type PB1_(1–25)A peptide (non-biotinylated competitor),IC50,1.8 nM
